Data set [1] concerns the target T1, FrmR (Salmonella enterica, UniProt A0A0H3NLH8, P2S).
T1 construct: gene SL1344_1558
The data set can be described thus: biochemical.

Data set [2] addresses T2, FrmR (Salmonella enterica, UniProt A0A0H3NLH8, C35A).
T2 construct: gene SL1344_1558
The data set can be described thus: biochemical.

In data set [3] the target is RcnR (Salmonella enterica, UniProt Q7CPV3). The data set can be described thus: biochemical.
For data set [4], the target named is T3, FrmR (Salmonella enterica, UniProt A0A0H3NLH8).
T3 construct: gene SL1344_1558
The data set is described as follows: biochemical.

The target of data set [5] is FrmR^E64H (Salmonella enterica serovar Typhimurium FrmR with Glu64 to His) (Salmonella enterica serovar Typhimurium strain SL1344). The data set can be described thus: crystal structure; FrmR E64H 0.5 mM in 400 mM NaCl, 1 mM EDTA, 1 mM DTT, 10 mM HEPES pH 7.0; crystals in 20 mM NaCl, 23% (w/v) PEG 4000, 10 mM BisTris pH 6.5, hanging drop vapor diffusion at 20 °C; one homotetramer in the asymmetric unit; 2.19 Å.

In the next data set the target is FrmRP2S (Salmonella enterica serovar Typhimurium …, UniProt A0A0H3NLH8 1-91, P2S). The data set can be described thus: fluorescence anisotropy; 5 mM EDTA, apo; 10 mM HEPES pH 7.0, 60 mM NaCl, 240 mM KCl, 5 mM EDTA (or 5 uM NiCl2/CoCl2), 25 C, 10 nM DNA; anaerobic except FrmRC35A; Kd per tetramer (two nondissociable tet). The settings on record: protein: recombinant; chain copies: 8. Background: Polarisation of emitted light reports the rotation of a fluorescent probe.

For the next data set, the target named is FrmRE64H (Salmonella enterica serovar Typhimurium …, UniProt A0A0H3NLH8 2-91, E64H). The description is as above. The settings on record: protein: recombinant; chain copies: 8.
For data set [6], the target named is FrmR (Salmonella enterica serovar Typhimurium …, UniProt A0A0H3NLH8 2-91). The data set can be described thus: fluorescence anisotropy; 800 uM GSH, 5 mM EDTA; 10 mM HEPES pH 7.0, 60 mM NaCl, 240 mM KCl, 5 mM EDTA (or 5 uM NiCl2/CoCl2), 25 C, 10 nM DNA; anaerobic except FrmRC35A; Kd per tetramer (two nondissociable tet). The settings on record: protein: recombinant; chain copies: 8.

The target of a further data set is RcnRS2P (Salmonella enterica serovar Typhimurium …, UniProt Q7CPV3 1-90, S2P). The data set can be described thus: fluorescence anisotropy; 5 mM EDTA, apo; 10 mM HEPES pH 7.0, 60 mM NaCl, 240 mM KCl, 5 mM EDTA (or 5 uM NiCl2/CoCl2), 25 C, 10 nM DNA; anaerobic except FrmRC35A; Kd per tetramer (two nondissociable tet). The settings on record: protein: recombinant; chain copies: 8; label: 5'-HEX on strand 1; blunt.

In data set [7] the target is T4, RcnR (Salmonella enterica serovar Typhimurium …, UniProt Q7CPV3 1-90).
T4 sequence: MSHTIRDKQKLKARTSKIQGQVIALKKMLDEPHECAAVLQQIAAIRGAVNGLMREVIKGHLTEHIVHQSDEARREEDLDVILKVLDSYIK
The data set is described as above. The settings on record: protein: recombinant; chain copies: 8; label: 5'-HEX on strand 1; blunt.

By Kd is commonly meant the equilibrium constant for the complex coming apart. Turning to `C=O` [formaldehyde], the Kd on FrmR [1] was greater than 50 µM; at FrmR [2], greater than 100 µM; at RcnR [3] it was greater than 100 µM; on FrmR [4], 10 to 20 µM.

As a reminder, the stoichiometry N is the number of molecules, sites or subunits per partner or assembly. In turn, “FrmR^E64H (Salmonella enterica serovar Typhimurium FrmR with Glu64 to His) (natural protein)” had a stoichiometry N in data set [5] of 4.

B1: frmRAPro (dsDNA)
DNA 1: TTCTGATAGTATACCCCCCTATAGTATATGGAG
DNA 2: CTCCATATACTATAGGGGGGTATACTATCAGAA
In the case of B1, the Kd with FrmRP2S stood at 150 nM. Moreover, the binding result with FrmRE64H was “binds”. For the same molecule, in the data set with FrmR [6], the binding signal is roughly 2.5 fold tighter Kd vs apo.

B2: rcnRAPro (dsDNA)
DNA 1: TACTCCCCCCCAGTATAGAATACTACCCCCCAGTA
DNA 2: TACTGGGGGGTAGTATTCTATACTGGGGGGGAGTA
For B2, the results for the Kd with RcnRS2P and with RcnR [7] were 160 nM and 150 nM, respectively.

These data come from publication PMC5016687, “The Effectors and Sensory Sites of Formaldehyde-responsive Regulator FrmR and Metal-sensing Variant” (The Journal of Biological Chemistry, 2016).
